Measured values from publication PMC2396426 (Nucleic Acids Research, 2008).

Target: T1, yeast general transcription factor TFIIB (yeast, UniProt P29055 1-345)
T1 sequence (looked up): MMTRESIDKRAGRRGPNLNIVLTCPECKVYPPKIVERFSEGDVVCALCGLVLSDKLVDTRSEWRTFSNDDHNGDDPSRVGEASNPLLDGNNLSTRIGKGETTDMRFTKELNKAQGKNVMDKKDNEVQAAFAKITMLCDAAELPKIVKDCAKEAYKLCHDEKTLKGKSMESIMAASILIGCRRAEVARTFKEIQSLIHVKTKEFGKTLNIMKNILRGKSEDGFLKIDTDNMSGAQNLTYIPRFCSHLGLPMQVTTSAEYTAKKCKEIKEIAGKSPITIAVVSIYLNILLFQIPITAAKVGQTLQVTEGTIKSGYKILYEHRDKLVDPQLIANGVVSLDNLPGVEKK
Assay: native gel or EMSA

B1: yeast TATA-binding protein (TBP) (natural protein, UniProt P13393 1-240, looked up)
chain: MADEERLKEFKEANKIVFDPNTRQVWENQNRDGTKPATTFQSEEDIKRAAPESEKDTSATSGIVPTLQNIVATVTLGCRLDLKTVALHARNAEYNPKRFAAVIMRIREPKTTALIFASGKMVVTGAKSEDDSKLASRKYARIIQKIGFAAKFTDFKIQNIVGSCDVKFPIRLEGLAFSHGTFSSYEPELFPGLIYRMVKPKIVLLIFVSGKIVLTGAKQREEIYQAFEAIYPVLSEFRKM
  binding result: binds
